Measured values as given in article PMC10470531, “RecJ3/4-aRNase J form a Ubl-associated nuclease complex functioning in survival against DNA damage in Haloferax volcanii” (mBio, 2023).

B1: aRNase J-StrepII (natural protein, H. volcanii, UniProt D4GW49 1-450, looked up)
chain: MEIEIATIGGYEEVGRQMTAVRAGDDVVVFDMGLNLSQVLIHDNVETEKMHSLDLIDMGAIPDDRVMSDLEGDVQAIVPTHGHLDHIGAISKLAHRYDAPVVATPFTIELVKQQIEGENKFNVNNDLVKMEAGETMSIGDSGNVELEFVHVTHSIIDAINPVVHTPEGAVVYGLDKRMDHSPVLEDPIDMKRFREIGREGNGVLAYIEDCTNAGRKGRTPSESVARRHLKDVMTSVEDYDGGIVATTFSSHISRVSSLVEFAKDIGRQPVLLGRSMEKYSGTAERLGFVDLPDDLGMYGHRKSVDRTFKRIMKEGKENYLPIVTGHQGEPRAMLTRMGRGETPYEIDDGDKVIFSARVIPEPTNEGQRYQSERLLRMQGARIYDEIHVSGHLREEGHYEMLQALQPQHVIPAHQNLKGFAPYVDLAESQGYALGRDLHVTRNGNMIQLVE
notes: archaeal RNase J of Haloferax volcanii, amplified with primers HVO_2724 NdeI and HVO_2724 KpnI; A homodimer when purified from the ΔrecJ3 mutant (SEC); in the RecJ3/4-aRNase J complex the stoichiometry is 2:2:1; also called aRNase J with a C-terminal StrepII tag; aRNase J homodimer; source: H. volcanii H26- or HS01-pJAM1406, HJ02-, HJ04- or HJ07-pJAM4252, in lysate; purified (Strep-Tactin, SEC); …

Assays:
[1] = target: aRNase J-StrepII (H. volcanii) (UniProt D4GW49); assay: affinity purification with mass spectrometry; tandem affinity purification (HisTrap, then Strep-Tactin) of His6-RecJ3 and aRNase J-StrepII from H. volcanii HJ02-pJAM4252 against the empty vector; 2 M NaCl buffers; LC-MS/MS of the liquid fractions and AQUA-based MS/MS (SRM with heavy peptides) for the stoichiometry
[2] = target: His6-RecJ3 (H. volcanii) (UniProt D4GVJ5); assay: as above
[3] = target: His6-RecJ3 (H. volcanii) (UniProt D4GVJ5); assay: SEC; HisTrap-bound, Strep-Tactin flow-through fractions from H. volcanii HJ07; Superdex 200 Increase 10/300 GL; 50 mM HEPES pH 7.5, 2 M NaCl, 1 mM DTT, 5 mM MnCl2, 5 mM MgCl2, 10% glycerol; fractions on reducing SDS-PAGE
[4] = target: the molecule itself; assay: SEC; aRNase J-StrepII purified by Strep-Tactin from H. volcanii HS01-pJAM1406 (ΔrecJ3); Superdex 200 Increase 10/300 GL; 50 mM HEPES pH 7.5, 2 M NaCl, 1 mM DTT, 5 mM MnCl2, 10% glycerol; column calibrated with mass standards

Chain of His6-RecJ3 (H. volcanii) (D4GVJ5 entry or part of it): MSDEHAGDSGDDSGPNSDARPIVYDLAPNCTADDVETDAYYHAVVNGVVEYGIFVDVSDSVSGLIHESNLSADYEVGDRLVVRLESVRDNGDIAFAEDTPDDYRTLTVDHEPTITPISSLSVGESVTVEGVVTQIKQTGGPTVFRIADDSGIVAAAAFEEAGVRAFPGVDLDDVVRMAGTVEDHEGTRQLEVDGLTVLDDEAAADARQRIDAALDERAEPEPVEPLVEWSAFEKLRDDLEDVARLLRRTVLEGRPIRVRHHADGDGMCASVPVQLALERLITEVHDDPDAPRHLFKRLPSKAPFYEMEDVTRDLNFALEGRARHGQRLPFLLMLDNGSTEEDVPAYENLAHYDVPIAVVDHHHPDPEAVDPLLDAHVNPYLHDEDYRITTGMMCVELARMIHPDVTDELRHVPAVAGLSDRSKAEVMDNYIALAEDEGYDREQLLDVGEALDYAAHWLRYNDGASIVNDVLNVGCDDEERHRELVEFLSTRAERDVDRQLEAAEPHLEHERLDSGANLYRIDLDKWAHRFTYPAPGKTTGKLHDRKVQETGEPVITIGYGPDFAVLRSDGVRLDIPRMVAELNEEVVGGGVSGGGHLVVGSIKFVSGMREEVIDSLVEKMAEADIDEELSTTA

Row | Molecule | stoichiometry N (RecJ4 per aRNase J) [1] | stoichiometry N (RecJ4 per RecJ3) [2] | stoichiometry N (RecJ4 per RecJ3) [3] | stoichiometry N [4]
1 | RecJ4 (natural protein) | 2 | 1 | 1 | 
2 | B1 |  |  |  | 2
